Data reported in patent EP4722241A1 (Jiksak Bioengineering, Inc., dated 2024).
Numbering of substitutions follows the chain as printed.

T1: pan-hSYT2 (antigenic peptide for panning, Human SYT2 position 1-62) (human, lysine residue bound to biotin (position marked only in a picture of the sequence))
T1 construct: Synthetic biotinylated peptide, immobilised on streptavidin biosensors in the Octet measurements; also called N-terminal domain of human Synaptotagmin 2
T1 peptide: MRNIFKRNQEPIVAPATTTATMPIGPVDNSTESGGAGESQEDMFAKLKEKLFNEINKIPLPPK

B1: first monoclonal antibody according to the present invention (antibody, human IgG1, V domains shown)
VH: EVQLQESGAELVRPGASVKLSCKASGYTFTDYEMHWVKQTPVHGLEWIGAIDPETGGTAYNQKFKGKATLTADKSSSTAYMELRSLTSEDSAVYYCTRGNDGYNEDYWGQGTTLTVSS
VL: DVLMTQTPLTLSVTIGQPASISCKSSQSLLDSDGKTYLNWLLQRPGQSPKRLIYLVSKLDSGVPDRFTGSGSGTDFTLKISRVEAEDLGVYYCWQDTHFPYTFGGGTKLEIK
notes: Mouse VH and VL from a phage display scFv clone; also called first antibody; first anti-SYT2 antibody
B2: second monoclonal antibody according to the present invention (antibody, human IgG1, V domains shown)
VH: B1 VH with E1Q, E6Q, T113S
VL: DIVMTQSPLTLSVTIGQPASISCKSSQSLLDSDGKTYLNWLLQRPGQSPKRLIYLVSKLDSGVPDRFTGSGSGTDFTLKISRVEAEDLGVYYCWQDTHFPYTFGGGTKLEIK
notes: also called second antibody; second anti-SYT2 antibody

Key:
[1] = biological target: T1, pan-hSYT2 (antigenic peptide for …); assay: BLI (Octet RED96e), biotinylated pan-hSYT2 on streptavidin biosensor, antigen loaded at 0.05 ug/mL
[2] = biological target: T1, pan-hSYT2 (antigenic peptide for …); assay: BLI (Octet RED96e), same manner as Example 2, antigen loaded at 0.2 ug/mL

Binder | Kd [1] [nM] | koff [1] [s⁻¹] | kon [1] [M⁻¹ s⁻¹] | koff [2] [s⁻¹]
B1 | 0.0267 | 7.01e-06 | 263000 | 
B2 |  |  |  | 1.35e-05
